{
  "source": "paper PMC2832190",
  "binders": {"B1": {"name": "FAM-DNA 26-mer (ssDNA)", "DNA": "GACTGACTGACTGACTGACTGACTGA"}},
  "target": "(Ni2+-NTA)2-Cy3-His6-AGT (O6-alkylguanine-DNA alkyltransferase) (human, UniProt P16455 1-207)",
  "sequence (P16455 whole entry)": "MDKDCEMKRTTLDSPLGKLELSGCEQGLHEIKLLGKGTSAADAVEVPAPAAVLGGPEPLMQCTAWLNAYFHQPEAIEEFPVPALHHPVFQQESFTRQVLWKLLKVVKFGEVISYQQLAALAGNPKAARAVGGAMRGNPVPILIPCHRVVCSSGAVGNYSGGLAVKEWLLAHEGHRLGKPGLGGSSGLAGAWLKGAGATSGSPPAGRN",
  "experiment": "FRET",
  "data": [
    {"binder": "B1", "values": [
      {"measurement": "apparent K (half saturation)", "value": 554000, "unit": "M⁻¹"}
    ]}
  ]
}
